Data: the supplement of paper PMC10567573
± gives the standard deviation.

Experiment: protein stability index of a GFP-peptide fusion (GPS, HEK-293T) (PSI 1-6); higher = more stable
[1] = treatment: DMSO, c terminus: a fixed tail appended
[2] = treatment: MLN4924 1 uM, 8 h, c terminus: a fixed tail appended
[3] = treatment: DMSO, c terminus: native
[4] = treatment: MLN4924 1 uM, 8 h, c terminus: native
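Note: 24-mer peptide tiles fused after GFP, lentivirally expressed, FACS-sorted into six equal bins by GFP/DsRed ratio, decoded by Illumina sequencing, PSI is the read-weighted mean bin number.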

Row | Sequence | protein stability index [1] | protein stability index [2] | protein stability index [3] | protein stability index [4]
1 | GTVPGQAPRLAVAVPAVTSADSQF [LYSMD4] | 4.46 ± 0.28 | 4.55 ± 0.17 |  | 
2 | DGLREQLQAPVPPDSVPSLQNMGL [PBXIP1] | 4.45 ± 0.1 | 4.4 ± 0.15 |  | 
3 | ISLDVLQPSFPEILLESHMVMIRG [POMT2] | 2.34 ± 0.39 | 2.41 ± 0.71 |  | 
4 | VRELRIAFREFDRDRDGRITVAEL [CABP4] | 2.7 ± 0.49 | 2.98 ± 0.17 |  | 
5 | APCRSAQASVSCALEALEPFWEVL [HDAC6] | 3.32 ± 0.59 | 2.69 ± 0.82 |  | 
6 | LAVGTDLYGQRNSAPEQELLVQDA [GFOD1] | 4.66 ± 0.22 | 4.69 ± 0.36 |  | 
7 | LVVLRFLTMNSEDERRDAEERASL [KCNK9] | 2.68 ± 0.15 | 2.62 ± 0.28 |  | 
8 | AITRVSDRFSGETSAAALSPMSAA [SMTNL2] | 4.06 ± 0.15 | 3.63 ± 0.29 |  | 
9 | ALQTLLTLIVVDASGLGLEITTQF [SLC19A2] | 3 ± 0.39 | 3.31 ± 0.56 |  | 
10 | HNAWLSYSLLPQSTAPGLFLVSTH [PCDHGC5] | 2.51 ± 0.58 | 2.63 ± 0.56 |  | 
11 | LKGSRVSILFGHENRVSTLRVSPD [GNB5] | 2.96 ± 0.15 | 3.02 ± 0.29 |  | 
12 | ALDSADLPPPSALKKGSKEKQADF [NFE2L1] | 5.33 ± 0.2 | 5.39 ± 0.21 |  | 
13 | TIKPRRVEPVCSGLQAQILHCYRD [CHCHD6] | 2.98 ± 0.051 | 2.98 ± 0.21 |  | 
14 | LQFTILLSLIGVRVDVDTYLTSQL [NFE2L1] | 2.97 ± 0.47 | 3.13 ± 0.27 |  | 
15 | YQDDPDLRFLLDQVQLGLRCCGAA [TSPAN10] | 2.56 ± 0.28 | 2.65 ± 0.22 |  | 
16 | IDRQKCMAHRTRYPTILQLAGYQ [TEKT4] |  |  | 2.26 ± 0.37 | 2.14 ± 0.35
17 | PGGGDICMYRHALPPGFVLKKDKK [ZC3H15] | 4.29 ± 0.2 | 4.04 ± 0.1 |  | 
18 | PSLEDLFDLCDRTFSLKTVLMIAI [CSNK1G3] | 2.5 ± 0.42 | 2.38 ± 0.43 |  | 
19 | RGKRGYSRGLHAWEISWPLEQRGT [SPSB2] | 2.88 ± 0.087 | 3.03 ± 0.41 |  | 
20 | DSTLSYTETEATNSLITAPGEFSD [SMAD6] | 5.34 ± 0.2 | 5.39 ± 0.17 |  | 
21 | WLDPGHTAVAQAPPAVASSSLFDL [SERTAD1] | 3.33 ± 0.27 | 3.38 ± 0.097 |  | 
22 | EGVAGKSGLEKEVQRLTSRAARDY [FCHSD1] | 4.69 ± 0.039 | 4.84 ± 0.09 |  | 

Row | Sequence | protein stability index [1] | protein stability index [2] | protein stability index [3] | protein stability index [4]
23 | EDNEREGTENGAIDAVPVDENLFT [ZC3H15] | 5.54 ± 0.15 | 5.68 ± 0.23 |  | 
24 | TETREEDVTDEHGEREPFAETDEH [FAM9B] | 5.69 ± 0.061 | 5.63 ± 0.26 |  | 
25 | VSNMSGPSGEEEAKVGPGLPDGCQ [CBY2] | 5.46 ± 0.12 | 5.16 ± 0.16 |  | 
26 | SEEGQNGSSPKSKTKWTKEDGHRT [ADD1] | 5.36 ± 0.29 | 5.36 ± 0.23 |  | 
27 | CEMEQQSQEYQILLDVKTRLEQEI [KRT16] | 4.1 ± 0.39 | 4.11 ± 0.37 |  | 
28 | GYAVNVFDIQQGFDNPQVRFFLGD [NSDHL] | 2.36 ± 0.38 | 2.57 ± 1.4 |  | 
29 | GADPKSVVCAFFKQGQCTKGDKCK [ZC3H15] | 3.82 ± 0.14 | 4.28 ± 0.37 |  | 
30 | NGCRSGEIFAIDLRCGNQGKGWKA [DCAF4] | 2.31 ± 0.35 | 2.2 ± 0.29 |  | 
31 | GVLILFLTFFAFLHCWLNAFAEML [SOAT1] | 2.88 ± 0.4 | 2.85 ± 0.36 |  | 
32 | ELSRQVRSSVELELERCRQQAGLL [PPEF2] | 3.23 ± 0.25 | 3.2 ± 0.39 |  | 
33 | NLDTEELCEYFSQHLGEYENVLAA [NECAB1] | 2.83 ± 0.32 | 3.3 ± 0.66 |  | 
34 | MLIFWTITLFLLGAAKGKEVCYED [PNLIPRP1] | 3.72 ± 0.18 | 3.3 ± 0.69 |  | 
35 | SLTLEDVAVDFTWEEWQFLSPAQK [ZNF649] | 3.83 ± 0.11 | 3.95 ± 0.12 |  | 
36 | SRWSEASRAILQRVQAAAFGPGQT [ALKBH7] | 3.01 ± 0.38 | 3.19 ± 0.39 |  | 
37 | PSHGSLSHSKAPSGSQMSHNAVTS [NCF4] | 4.55 ± 0.1 | 4.83 ± 0.37 |  | 
38 | TRLQDCYVDSPALTNIWMARTCAK [C22orf31] | 2.47 ± 0.2 | 2.69 ± 0.11 |  | 
39 | KSNFRVQLFEDPTVDKEVEIRKKV [MNAT1] | 4.65 ± 0.33 | 4.69 ± 0.38 |  | 
40 | LSTNNNTLRDHFKGISSHSRSSLM [SLC2A12] | 2.93 ± 0.3 | 3.3 ± 0.16 |  | 
41 | MEPAVSEPMRDQVARTHLTEDTPK [NSDHL] | 5.57 ± 0.16 | 5.51 ± 0.22 |  | 
42 | LGDTQFCFRFRQSSGRRVSLHCLL [DENND6A] | 2.89 ± 0.48 | 2.65 ± 0.59 |  | 
43 | RGDGGIYIGSIMKGGAVAADGRIE [DVL3] | 3.65 ± 0.18 | 3.75 ± 0.21 |  | 
44 | LKKEPGHPWKWSNGKEFNNWFNVT [CD69] | 2.14 ± 0.13 | 2.23 ± 0.25 |  | 

Row | Sequence | protein stability index [1] | protein stability index [2] | protein stability index [3] | protein stability index [4]
45 | IRVQGREFRAHRAVLAASSPYFHD [ZBTB22] | 2.55 ± 0.21 | 2.41 ± 0.16 |  | 
46 | GSIPGFLISSGMSSHKQGHTSSEY [TAF7L] | 3.25 ± 0.23 | 3.29 ± 0.29 |  | 
47 | GHHLLKWIIKSNYQGLPVRCVKSI [SRPK2] | 2.2 ± 0.56 | 2.33 ± 0.34 |  | 
48 | TVAAETRAVIAWMEKIPFVLGGNL [CPXM2] | 2.56 ± 0.86 | 2.71 ± 0.6 |  | 
49 | GRLEGLIQPDDLINQLTFIMDANQ [FAF2] | 2.8 ± 0.2 | 2.77 ± 0.5 |  | 
50 | TPASNHLPGWEDIESKIPLNMEEP [SLC19A2] | 5.28 ± 0.21 | 5.44 ± 0.066 |  | 
51 | SDVHPVALNFMKGCLKMNPDDRLT [CDKL4] | 3.55 ± 0.27 | 3.49 ± 0.18 |  | 
52 | DFFWNETWYLKTIDICHDHFGWYL [DHCR7] | 3.26 ± 0.74 | 2.81 ± 0.35 |  | 
53 | GTHPEDHQGHSDQHHHHHHHHHGR [RHOBTB2] | 4.9 ± 0.16 | 5.01 ± 0.26 |  | 
54 | GLSDRAKEAKEFLVQLRNMVQQIQ [TRIM9] | 2.17 ± 0.56 | 2.2 ± 0.23 |  | 
55 | QPCSIVDVEFLPVYHPSPEESRDP [LPCAT4] | 4.84 ± 0.28 | 4.88 ± 0.38 |  | 
56 | SPSESSETVLALVNCISPLKYFSD [DENND6A] | 2.78 ± 0.3 | 2.8 ± 0.35 |  | 
57 | ALLFTGIAVLGIVMLKRIHSLYRR [SCAMP3] | 2.2 ± 0.52 | 1.96 ± 0.25 |  | 
58 | RHDGYATNDGNHPSCQETRDYAPP [RBMY1A1] | 5 ± 0.31 | 4.93 ± 0.084 |  | 
59 | FRNAASTLTERPCYNRRASKLTY [ANKRD40] |  |  | 3.26 ± 0.21 | 3.16 ± 0.39
60 | TDRRVLLMFLDICSELNKLCQHFE [SPACA9] | 2.44 ± 0.56 | 2.38 ± 0.42 |  | 
61 | GHEGSVSSCHFARDSSFLISGGFD [WDR88] | 2.98 ± 0.33 | 3.1 ± 0.13 |  | 
62 | CQGQRLFEKLLQLTSQNIEIKLVS [PLD5] | 2.35 ± 0.19 | 2.29 ± 1.3 |  | 
63 | HDIDCQWVDITDVPPGDYLFQVVI [LOXL2] | 3.01 ± 0.2 | 2.92 ± 0.41 |  | 
64 | FMYFLRGSLPWQGLKADTLKERYQ [CSNK1G1] | 2.43 ± 0.35 | 2.26 ± 0.17 |  | 
65 | DTKGKPTSRTQVYKPPALKKSNSP [ZC2HC1A] | 4.89 ± 0.22 | 4.94 ± 0.18 |  | 
66 | PTEGQGSLLTNWPSVPPTIKEEEN [MYBL2] | 5.46 ± 0.23 | 5.42 ± 0.18 |  | 

Row | Sequence | protein stability index [1] | protein stability index [2] | protein stability index [3] | protein stability index [4]
67 | FLVAEWNEPSINFYKRRGASDLSS [SAT1] | 2.32 ± 0.28 | 2.43 ± 0.45 |  | 
68 | YGYNNVVTIPAGATHILVRQQGNP [ADAMTS4] | 2.53 ± 0.13 | 2.72 ± 0.34 |  | 
69 | SCDLPEERYRHEIAHDGQRIYVLG [KLHDC10] | 3.81 ± 0.17 | 3.75 ± 0.25 |  | 
70 | GLSAPARCLVRCLLRREPAERLTA [TRIB3] | 2.33 ± 0.12 | 2.16 ± 0.32 |  | 
71 | ENQSPSSSNYFSPRESTDFSSSSQ [ZBTB22] | 5.12 ± 0.31 | 4.96 ± 0.34 |  | 
72 | LDGLIQQCGETMKETVNVKTVCGY [GMCL1] | 3.1 ± 0.33 | 3.37 ± 0.36 |  | 
73 | FHLDVEDYLSGVLILASELSRLSV [TSN] | 3.06 ± 0.74 | 3.04 ± 0.48 |  | 
74 | PRARRRLGSGPDRELRKPEEPENG [PWWP2B] | 5.43 ± 0.14 | 5.42 ± 0.2 |  | 
75 | QVEKNKYDASAIDFSRCDMDGATL [ELF3] | 4.63 ± 0.23 | 4.58 ± 0.14 |  | 
76 | RASRTYELQNQLAACTRALESSEE [FSD1] | 5.01 ± 0.2 | 4.92 ± 0.26 |  | 
77 | AGREVFDYSHRQKEQDVEKELRDG [NFE2L1] | 4.99 ± 0.25 | 5.53 ± 0.52 |  | 
78 | SGYGFRPSMVSGGYVANSSNCISG [KRT71] | 2.82 ± 0.2 | 2.73 ± 0.16 |  | 
79 | MNEVEKTMEYSMVGRTVLDMLIRE [RSPH3] | 2.59 ± 0.56 | 2.16 ± 0.22 |  | 
80 | LKDIFMFITRQLKGLEDTKSPQFN [PDS5B] | 2.11 ± 0.058 | 2.54 ± 0.31 |  | 
81 | QVQSMVVGEVLKDIETACKLLNIT [SPDEF] | 2.42 ± 0.36 | 2.39 ± 0.35 |  | 
82 | LRTLSRAKFWPRRRFNFFVLENNL [DNAAF3] | 2.33 ± 0.99 | 2.15 ± 0.087 |  | 
83 | ENFDHNTLALILQIPTQNTQARQV [PPFIA4] | 2.58 ± 0.21 | 2.81 ± 0.45 |  | 
84 | RVVCGIDSSMILTVPGQALACGSN [NEK8] | 2.73 ± 0.12 | 2.52 ± 0.29 |  | 
85 | DREVDAATSATSHTRSLNSIIHQM [FBF1] | 4.09 ± 0.15 | 4.21 ± 0.28 |  | 
86 | TIQGVPLSSYISINSDTGVLYALR [PCDHGA10] | 2.19 ± 0.096 | 2.14 ± 0.17 |  | 
87 | WETIRSFKDEWTQLDMFYRNWALK [AASDHPPT] | 2.14 ± 0.13 | 2.08 ± 0.32 |  | 
88 | ERLRLEQQKQQIMAALNSQTAVQF [ACBD3] | 3.36 ± 0.46 | 3.42 ± 0.28 |  | 
